Assay results taken from ChEMBL document CHEMBL1250451, “Mechanistic insights into a Ca2+-dependent family of alpha-mannosidases in a human gut symbiont” (Nat Chem Biol, 2010).

Columns and labels:
Type in all cases: protein assay
[1] = substrate: OC[C@H]1O[C@H](O[C@H]2[C@H](O)[C@H](O)[C@@H](O)O[C@@H]2CO)[C@@H](O)[C@@H](O)[C@@H]1O; test: (§1) Activity of Bacteroides thetaiotaomicron GH92 alpha-mannosidase GH92 alpha-mannosidase 3965 assessed as mannose release after 16 hrs by HPLC
[2] = substrate: O=[N+]([O-])c1ccc(O[C@H]2O[C@H](CO)[C@@H](O)[C@H](O)[C@@H]2O)cc1; test: as §1
[3] = substrate: OC[C@H]1O[C@H](O[C@H]2[C@H](O)[C@H](O)[C@@H](O)O[C@@H]2CO)[C@@H](O)[C@@H](O)[C@@H]1O; test: (§2) Ratio of Kcat to Km for Bacteroides thetaiotaomicron GH92 alpha-mannosidase GH92 alpha-mannosidase 3965 assessed as mannose release after 16 hrs by HPLC
[4] = substrate: O=[N+]([O-])c1ccc(O[C@H]2O[C@H](CO)[C@@H](O)[C@H](O)[C@@H]2O)cc1; test: as §2
[5] = substrate: O=[N+]([O-])c1ccc(O[C@H]2O[C@H](CO)[C@@H](O)[C@H](O)[C@@H]2O)cc1; test: Ratio of Kcat to Km for Bacteroides thetaiotaomicron GH92 alpha-mannosidase GH92 alpha-mannosidase 3991 assessed as mannose release after 16 hrs by HPLC
[6] = substrate: O=[N+]([O-])c1ccc(O[C@H]2O[C@H](CO)[C@@H](O)[C@H](O)[C@@H]2O)cc1; test: Activity of Bacteroides thetaiotaomicron GH92 alpha-mannosidase GH92 alpha-mannosidase 3991 assessed as mannose release after 16 hrs by HPLC

B1: Alpha-1,2-mannosidase (BT_3965) (Bacteroides thetaiotaomicron), Q8A0Q6 (protein)
chain: MAQTEKLTDYVNPFVGTDGYGNVYPGAQIPFGGIQISPDTDSRFYDAASGYKYNHLTLMGFSLTHLSGTGIPDLGDFLFIPGTGEMKLEPGTHEDPDQGYRSRYSHDKEWASPNYYAVELADYGVKAEMTSGVRSGMFRFTYPESDNAFIMIDMNHTLWQSCEWSNLRMINDSTITGYKLVKGWGPERHVYFTATFSKKLTGLRFVQDKKPVIYNTSRFRSSYEAWGKNLMACISFDTKAGEEVTVKTAISAVSTDGARNNMKELDGLTFNELRAKGEALWEKELGKYTLTADRKTKETFYTSAYHAALHPFIFQDSDGQFRGLDKNIEKAEGFTNYTVFSLWDTYRALHPWFNLVQQEVNADIANSMLAHYDKSVEKMLPIWSFYGNETWCMIGYHAVSVLADMIVKEVKGFDYERAYEAMKTTAMNSNYDCLPEYREMGYVPFDKEAESVSKTLEYAYDDYCIAQAAKKLGKEDDYHYFLNRALSYQTLIDPETKYMRGRDSKGDWRTPFTPVAYQGPGSVHGWGDITEGFTMQYTWYVPQDVQGYINEAGKELFRKRLDELFTVELPDDIPGAHDIQGRIGAYWHGNEPCHHVAYLYNYLKEPWKCQKWIRTIVDRFYGNTPDALSGNDDCGQMSAWYMFNCIGFYPVAPSSNIYNIGSPCAEAITVRMSNGKNIEMTADNWSPKNLYVKELYVNGKKYDKSYLTYDDIRDGVKLRFVMSGKPNYKRAVSDEAVPPSISLPEKTMKYKSSIGF
[1]
  Km: 8000 µM
  kcat: 1.48 s⁻¹
[2]
  Km: 1000 µM
  kcat: 0.233 s⁻¹
[3]
  kcat/Km: 183 M⁻¹ s⁻¹
[4]
  kcat/Km: 233 M⁻¹ s⁻¹

B2: Alpha-1,2-mannosidase (BT_3991) (Bacteroides thetaiotaomicron), Q8A0N0 (protein)
chain: MKLKTLLIGCFGGFIMLNSCTESPSVKDYSAYVNPFIGTGGHGHTFPGAVVPHGMIQPSPDTRIDGWDACSGYYYDDNTINGFSHTHVSGTGCCDYGDVLLMPTVGKPQYLTTDPESQKLAYASAFSHENETAEPGYYSVFLDTYQVKAEITATKRGAIHRYTFPESTESGFIIDLDYSLQRQTNYEMEIEVISDTEICGHKKTTYWAFDQYINFYAKFSKPFAYTLITDSVTMDNGKRLPVCKAVLHFNTKKDEEVLVKVGVSAVDIAGARKNVESEIPEWDFDKVRKDARTAWNNYLSKIDITTSDKEDKTIFYTALYHTAISPNLFTDADGRYLGMDLEVHQGDTINPLYTVFSLWDTFRALHPLMTIIDPNLNNQFINSLIRKHQEGGIYPMWDLASNYTGTMIGYHAVPVIVDAYMKGYRNFDAHEAYKASLRAAEYDTTGIKCPDLVLPHLMPKAKYYKNAIGYIPCDRENESVAKALEYAYDDWCISIFAEAMNDFENKAKYERFAKAYEFYFDKSTRFMRGLDSNGEWRTPFNPRASTHRSDDYCEGTAWQWTWFVPHDVEGLVKLMGGEDAFVEKLDSLFTVDSSLDGETTSADISGLIGQYAHGNEPSHHVIHLYNYVNRPWRTQELVDSVYRSQYANNVDGLSGNEDCGQMSAWYILNSMGFYQVCPGKPVYSIGRPAFDKAVINLPGEKTFSIVAKNNSKSNKYIESVLLNGKPLDTPFFGHQDIVAGGVMEIRMTDHPTQWGVRQ
[5]
  kcat/Km: 0.917 M⁻¹ s⁻¹
[6]
  Km: 2700 µM
  kcat: 0.0025 s⁻¹
